Laboratory results: publication PMC10198636 (Science Advances, 2023)

Biological target: Cul3(N), recombinant N-terminal domain of human Cul3 (human, UniProt Q13618 1-417)
Test: ITC

Cul3(N), recombinant N-terminal domain of human Cul3, sequence (Q13618 1-417): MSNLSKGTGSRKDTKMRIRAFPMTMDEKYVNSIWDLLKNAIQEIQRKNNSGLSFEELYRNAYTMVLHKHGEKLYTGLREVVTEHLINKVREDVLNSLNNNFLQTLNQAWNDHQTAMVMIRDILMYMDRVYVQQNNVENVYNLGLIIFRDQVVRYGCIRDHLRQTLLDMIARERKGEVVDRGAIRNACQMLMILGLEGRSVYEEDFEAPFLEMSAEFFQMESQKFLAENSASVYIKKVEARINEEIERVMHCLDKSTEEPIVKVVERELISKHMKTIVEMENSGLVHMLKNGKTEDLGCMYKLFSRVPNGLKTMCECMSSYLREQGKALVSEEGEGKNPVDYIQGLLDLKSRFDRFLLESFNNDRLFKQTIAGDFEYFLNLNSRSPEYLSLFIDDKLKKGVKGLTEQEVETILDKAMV

Kd [nM]	Binder
13.8	KLHL3(N), recombinant N-terminal portion of human KLHL3 spanning the BTB and BACK domains (domain or fragment) MEGESVKLSSQTLIQAGDDEKNQRTITVNPAHMGKAFKVMNELRSKQLLCDVMIVAEDVEIEAHRVVLAACSPYFCAMFTGDMSESKAKKIEIKDVDGQTLSKLIDYIYTAEIEVTEENVQVLLPAASLLQLMDVRQNCCDFLQSQLHPTNCLGIRAFADVHTCTDLLQQANAYAEQHFPEVMLGEEFLSLSLDQVCSLISSDKLTVSSEEKVFEAVISWINYEKETRLEHMAKLMEHVRLPLLPRDYLVQTVEEEALIKNNNTCKDFLIEAMKYHLLP
562	Keap1(N), recombinant N-terminal portion of human Keap1 spanning the BTB and BACK domains (domain or fragment) MQPDPRPSGAGACCRFLPLQSQCPEGAGDAVMYASTECKAEVTPSQHGNRTFSYTLEDHTKQAFGIMNELRLSQQLCDVTLQVKYQDAPAAQFMAHKVVLASSSPVFKAMFTNGLREQGMEVVSIEGIHPKVMERLIEFAYTASISMGEKCVLHVMNGAVMYQIDSVVRACSDFLVQQLDPSNAIGIANFAEQIGCVELHQRAREYIYMHFGEVAKQEEFFNLSHCQLVTLISRDDLNVRCESEVFHACINWVKYDCEQRRFYVQALLRAVRCHSLTPNFLQMQLQKCEILQSDSRCKDYLVKIFEELT
